According to patent US20080182795A1 (BOSTON MEDICAL CENTER, published 2008):
Where no end group is shown, it is not given here.

Assays:
rat GIP receptor = biological target: T1, rat GIP receptor (rat, UniProt P43219 19-455); assay: competition with [125I]GIP (porcine) for binding to LGIPR2 cells carrying the rat GIP receptor, room temperature
T1 construct: whole, on cells; LGIPR2 cells also carry a cAMP-dependent VIP promoter-lacZ reporter; also called LGIPR2 cells; LGIRP2 cells
T1 sequence (looked up): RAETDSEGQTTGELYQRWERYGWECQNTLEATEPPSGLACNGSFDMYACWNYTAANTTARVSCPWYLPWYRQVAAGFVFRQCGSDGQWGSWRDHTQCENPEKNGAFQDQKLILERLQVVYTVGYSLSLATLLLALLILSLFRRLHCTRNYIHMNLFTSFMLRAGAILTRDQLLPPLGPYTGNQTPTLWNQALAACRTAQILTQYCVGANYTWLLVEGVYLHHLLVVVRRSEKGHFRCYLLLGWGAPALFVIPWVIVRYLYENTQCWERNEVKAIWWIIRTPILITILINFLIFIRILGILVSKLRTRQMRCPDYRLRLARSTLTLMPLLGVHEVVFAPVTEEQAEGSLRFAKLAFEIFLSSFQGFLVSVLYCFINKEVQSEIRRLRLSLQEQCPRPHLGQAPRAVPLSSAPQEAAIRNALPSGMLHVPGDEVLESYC
Description: (§1) The specific activity of radiolabeled peptides was 10-50 μCi/mg (Hunter, et al., 1962, Nature, 194:495-498; Kieffer, et al., 1993, Can. J Physiol. Pharmacol., 71:917-922). Aliquots were lyophilized and reconstituted in assay buffer at 4° C. to a concentration of 3×10⁵ cpm/100 μl. […] The receptor binding buffer contained 138 mM NaCl, 5.6 mM KCl, 1.2 mM MgCl₂, 2.6 mM CaCl₂, 10 mM Hepes, 10 mM glucose, and 1% bovine serum albumin (BSA, fraction V, protease free, Sigma). […] Cells were washed once with PBS and then harvested with PBS-EDTA solution. βTC3 cells were then suspended in assay buffer at a density of 2×10⁶ cells/ml, and LGIPR2 cells were used at a density of 2.5×10⁵ cells/ml. […] Specific binding was defined as the difference between counts in the absence and presence of unlabeled peptide. […] Values are expressed as a percentage of maximum specific binding and are the mean ±SE, with assays performed in duplicate.

[1] = biological target: T2, GLP-1 receptor of βTC3 cells (mouse, UniProt O35659 22-463); assay: competition with [125I]GLP-1 for binding to βTC3 cells (GLP-1 receptor), room temperature
T2 construct: whole, on cells; also called βTC3 cell receptor; GLP-1 receptors
T2 sequence (looked up): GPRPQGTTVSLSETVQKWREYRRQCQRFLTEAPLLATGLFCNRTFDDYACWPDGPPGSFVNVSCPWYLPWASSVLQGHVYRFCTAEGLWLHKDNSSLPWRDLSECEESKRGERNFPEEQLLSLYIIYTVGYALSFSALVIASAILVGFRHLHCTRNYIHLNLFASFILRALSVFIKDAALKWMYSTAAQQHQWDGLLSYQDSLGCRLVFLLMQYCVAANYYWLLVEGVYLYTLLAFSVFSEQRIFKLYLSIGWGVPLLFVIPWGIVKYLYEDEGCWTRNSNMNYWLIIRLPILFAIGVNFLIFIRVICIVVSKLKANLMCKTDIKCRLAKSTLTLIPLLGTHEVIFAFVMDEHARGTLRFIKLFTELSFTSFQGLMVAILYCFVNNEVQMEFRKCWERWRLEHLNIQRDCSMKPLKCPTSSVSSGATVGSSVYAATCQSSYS
Description: as §1

B1: GIP (7-30)-NH2 (peptide)
peptide: ISDYSIAMDKIRQQDFVNWLLAQK-NH2
notes: also called ANTGIP; ANTGIIP
**Q.** What does the source list for B1?
**A.** IC50 (rat GIP receptor): 0.2 µM; IC50 [1]: 80 µM
